Changes are numbered by the printed parent chain.

Sequences and labels used below:
B1: anti-TIM-3 antibody clone A11 (antibody, V domains shown)
VH: QVQLQQWGAGLLKPSETLSLTCAVYGGSFSGYYWSWIRQPPGKGLEWIGEINHSGSTNYNPSLKSRVTISVDTSKNQFSLKLSSVTAADTAVYYCARGYVAGFDYWGQGTLVTVSS
VL: QSVVTQPPSVSAAPGQKVTISCSGSSSNIGNNYVSWYQQLPGTAPKLLIYGNNWRPSGIPDRFSGSKSGTSATLAISGLQTGDEADYYCETWDSSLSAGVFGGGTKLTVL
B2: anti-TIM-3 antibody clone G6 (antibody, V domains shown)
VH: QVQLQESGPGLVKPSGTLSLTCAVSGGSISSSNWWSWVRQPPGKGLEWIGEIYHSGSTNYNPSLKSRVTISVDKSKNQFSLKLSSVTAADTAVYYCARVVAVAGTVDYWGQGTLVTVSS
VL: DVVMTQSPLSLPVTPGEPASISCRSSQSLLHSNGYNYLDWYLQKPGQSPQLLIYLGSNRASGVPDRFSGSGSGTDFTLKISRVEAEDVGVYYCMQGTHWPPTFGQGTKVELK
B3: anti-TIM-3 antibody clone G7 (antibody, V domains shown)
VH: EVQLVQSGAEVKKPGASVKVSCKASGYTFTSYYMHWVRQAPGQGLEWMGIINPSGGSTSYAQKFQGRVTMTRDTSTSTVYMELSSLRSEDTAVYYCARDQYSSGWYYYGMDVWGQGTTVTVSS
VL: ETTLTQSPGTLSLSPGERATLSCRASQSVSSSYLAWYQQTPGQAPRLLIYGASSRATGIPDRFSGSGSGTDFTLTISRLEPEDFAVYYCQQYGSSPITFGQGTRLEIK
B4: anti-TIM-3 antibody clone G9 (antibody, V domains shown)
VH: B3 VH with E1Q, V5Q, Q100L, S103Y, W105F
VL: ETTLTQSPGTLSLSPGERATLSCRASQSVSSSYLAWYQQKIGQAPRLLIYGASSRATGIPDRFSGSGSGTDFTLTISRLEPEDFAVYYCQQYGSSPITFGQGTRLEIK
B5: anti-TIM-3 antibody clone B10 (antibody, V domains shown)
VH: QVQLQESGPGLVKASETLSLTCTVSGGSIGSSDYYWGWIRQPPGKGLEWIGSIYYSGSTYYNPSLKSRVTMSVDTPNNQFSLKLSSVTAADTAVYYCARGEHRGEFDYWGQGTLVTVSS
VL: EIVLTQSPATLSFSPGERATLSCRASQSVGSYLAWYQQRPGQAPRPLIYDATNRATGIPTRFSGSGSGTDFTLTISSLEPEDFATYYCQHRRTFGRGTKLEIK
B6: anti-TIM-3 antibody clone A3 (antibody, V domains shown)
VH: QVQLVQSGAEVKKPGASVKVSCKASGYTFTSYYMHWVRQAPGQGLEWMGIINPSGGSTSYAQKFQGRVTMTRDTSTSTVYMELSSLRSEDTAVYYCARSPGVVTALFDYWGQGTLVTVSS
VL: DIQMTQSPSFMSASVGDRVTITCRASQDIGSYLAWYQQKPGKAPKLLIYAASTLQSGVPSRFSGSGSGTDFTLTINSLQPEDFATYYCQQSYSSPPTFGPGTTLEIK

For the first test, the target named is T1, human TIM-3 coupled to human Fc (human, UniProt Q8TDQ0 22-200). Put plainly: SPR.
Broadly, the Kd is the equilibrium constant for the complex coming apart. For B1, the dissociation constant (Kd) amounted to 1.26 nM.

A further test concerns the target T1, human TIM-3 coupled to human Fc. Put plainly: SPR. This is another data set of the same source.
Molecule B2 yielded a Kd of 2.52 nM.
Same read-out and setting: the figure for B3 is 0.62 nM; for B4 it is 0.63 nM; for B5 it is 0.26 nM.
The same measure, in the same setting: to B6 belongs 0.44 nM.
